Source: PMC5430726 (2017)

Biological target: T1, SLP65 peptide (Homo sapiens, UniProt Q8WV28)
T1 chain: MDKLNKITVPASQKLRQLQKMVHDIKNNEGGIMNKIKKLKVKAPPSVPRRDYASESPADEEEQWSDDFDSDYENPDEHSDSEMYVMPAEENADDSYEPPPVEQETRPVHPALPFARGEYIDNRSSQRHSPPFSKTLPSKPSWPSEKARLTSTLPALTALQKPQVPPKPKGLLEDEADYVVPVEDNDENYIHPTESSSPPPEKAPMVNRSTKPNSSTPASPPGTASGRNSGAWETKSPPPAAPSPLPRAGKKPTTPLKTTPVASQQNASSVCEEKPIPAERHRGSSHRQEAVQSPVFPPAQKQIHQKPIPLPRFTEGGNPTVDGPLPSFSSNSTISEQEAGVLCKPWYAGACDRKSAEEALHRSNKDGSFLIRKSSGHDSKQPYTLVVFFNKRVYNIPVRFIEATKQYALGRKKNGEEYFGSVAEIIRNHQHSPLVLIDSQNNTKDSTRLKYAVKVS
Assay: ITC

B1: Grb2 SH3C (protein)
chain: QQPTYVQALFDFDPQEDGELGFRRGDFIHVMDNSDPNWWKGACHGQTGMFPRNYVTPVNR
modifications: Grb2 SH3C pre-bound to Vav SH3N
- Kd: 33.3 µM
